Data published in patent US20250115663A1 (CELLDEX THERAPEUTICS, published 2025).
Positions count from the first letter of the chain named.

Legend:
[1] = molecular target: T1, kappa-sCD40(1-94)-Flag point mutant P2Q (human, UniProt P25942 21-114); assay: ELISA, kappa-sCD40-Flag fusion captured on anti-Flag, anti-human IgG Fc-HRP
T1 construct: not shown: N-terminal human kappa light chain; C-terminal Flag tag
T1 chain: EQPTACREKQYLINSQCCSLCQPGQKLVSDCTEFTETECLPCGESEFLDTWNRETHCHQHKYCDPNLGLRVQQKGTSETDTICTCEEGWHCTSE

[2] = molecular target: T2, kappa-sCD40(1-94)-Flag mutant fragment B (multiple mutations of residues 13-15); assay: as above
T2 construct: also called B (13-15)

[3] = molecular target: T3, kappa-sCD40(1-94)-Flag mutant fragment C (multiple mutations of residues 25, 26, 28 and 30); assay: as above
T3 construct: also called C (25, 26, 28, 30)

[4] = molecular target: T4, kappa-sCD40-Flag fusion protein, fragment amino acids 1-94 (human, UniProt P25942 21-114); assay: ELISA, kappa-sCD40(1-94)-Flag captured on anti-Flag antibody, detection anti-human IgG Fc-HRP; the concentration axis is taken as that of 3C3 (not said on the sheet)
T4 construct: also called sCD40aa 1-94; not shown: N-terminal human kappa light chain; C-terminal Flag tag
Description: (§1) 1 μg/ml of purified kappa-sCD40-Flag fusion proteins or CHO cell supernatants containing the sCD40 fusion proteins were captured to microtiter plates that were pre-coated with 5 μg/ml mouse anti-Flag antibody (Sigma) in PBS and blocked with 5% bovine serum albumin in PBS. Following incubation with the CD40 antibody, the microplates were washed with PBS/Tween, and incubated with a goat anti-human IgG Fc polyclonal reagent conjugated to horseradish peroxidase. After washing, the plates were developed with HRP substrate, and analyzed at OD 450-650 using a microtiter plate reader. An ELISA with a goat anti-human IgG Fab2-HRP to measure kappa chain binding was carried out in parallel to validate the sCD40 fusion protein expression from different transfections.

[5] = molecular target: T4, kappa-sCD40-Flag fusion protein, …; assay: ELISA, kappa-sCD40-Flag fusion (~1 ug/ml) captured on anti-Flag, anti-human IgG Fc-HRP
Description: as §1

[6] = molecular target: T5, kappa-sCD40-Flag fusion protein, fragment amino acids 36-130 (human, UniProt P25942 56-150); assay: as above
T5 construct: not shown: N-terminal human kappa light chain; C-terminal Flag tag
T5 sequence (P25942 56-150): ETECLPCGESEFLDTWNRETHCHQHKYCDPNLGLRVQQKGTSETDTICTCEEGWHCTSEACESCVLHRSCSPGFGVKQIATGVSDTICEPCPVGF
Description: as §1

[7] = molecular target: T6, kappa-sCD40-Flag fusion protein, full length ECD amino acid residues 1-173 (human, UniProt P25942 21-193); assay: as above
T6 construct: also called full length sCD40; not shown: N-terminal human kappa light chain; C-terminal Flag tag
T6 sequence (P25942 21-193): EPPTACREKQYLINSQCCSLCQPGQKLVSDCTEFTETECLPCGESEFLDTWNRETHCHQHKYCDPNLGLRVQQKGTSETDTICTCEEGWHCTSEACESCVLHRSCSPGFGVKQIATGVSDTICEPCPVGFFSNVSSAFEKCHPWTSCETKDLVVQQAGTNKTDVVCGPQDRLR
Description: as §1

[8] = molecular target: T7, kappa-sCD40-Flag fusion protein, fragment amino acids 84-173 (human, UniProt P25942 104-193); assay: as above
T7 construct: not shown: N-terminal human kappa light chain; C-terminal Flag tag
T7 sequence (P25942 104-193): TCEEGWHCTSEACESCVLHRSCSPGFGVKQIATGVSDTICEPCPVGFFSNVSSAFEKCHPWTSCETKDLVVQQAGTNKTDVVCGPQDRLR
Description: as §1

[9] = molecular target: T8, soluble human CD40-MsIgG2a (human, UniProt P25942); assay: BLI (Octet QKe), antibody captured on anti-human Fc (AHC) biosensors, analyte soluble human CD40-MsIgG2a 3.13 to 0.098 nM, 25 C, 1:1 fit; column head kdis(1/s)
T8 construct: soluble, fused to mouse IgG2a; also called recombinant human CD40-msG2a chimeric protein; CD40-MsIgG2a (Celldex, 60 kD by SDS-PAGE)
T8 sequence (P25942 21-193 limits assumed): as the sequence (P25942 21-193) above
Description: Purified antibodies from Example 1 were captured on Anti-Human Fc Capture (AHC) biosensors (Fortebio Product No. 18-5060). Each antibody was prepared in dilution buffer (10mMPO4+150 mM NaCl+1 mg/mL BSA+0.5% Tween 20, pH 7.2) to 0.5 μg/mL and loaded on freshly hydrated AHC biosensors for 35-50 sec at 25° C. and 1000 rpm plate shake speed to achieve a target response of 0.2 nm. Low levels of ligand were captured to limit any effects of mass transport of analyte on kinetic parameters. For one assay, eight biosensors were loaded with the same antibody.
Binding was determined by exposing six of the antibody loaded biosensors to analyte: soluble human CD40-MsIgG2a (Celldex, 60 kD by SDS-PAGE). Affinity measurements were determined using 2-fold serial dilutions of analyte ranging from 3.13 to 0.098 nM in dilution buffer at 25° C. and 1000 rpm plate shake speed. Association of the antibody loaded biosensors in analyte wells was carried out for 1200 seconds, the biosensors were then moved to dilution buffer wells for 2.5 hrs (9000 sec) for dissociation measurements.
Fortebio's Data Analysis Software version 8.2.0.7 (Pall ForteBio, Menlo Park, CA) was used in each case to derive kinetic parameters from the concentration series of analyte in dilution buffer binding to captured antibody. The association and dissociation curves were fitted to a 1:1 binding model using the data analysis software according to the manufacturer's guidelines.

[10] = molecular target: T9, kappa-sCD40(1-94)-Flag mutant fragment D (multiple mutations of residues 33-36) (human, UniProt P25942 21-114); assay: ELISA, kappa-sCD40-Flag fusion captured on anti-Flag, anti-human IgG Fc-HRP
T9 construct: The text says only multiple mutations of residues 33-36 (human to mouse differences); that mutant D carries exactly these is inferred; also called D (33-36); not shown: N-terminal human kappa light chain; C-terminal Flag tag
T9 chain: T1 chain with Q2P, E33A, F34L, T35E, E36K
Description: as §1

[11] = molecular target: T2, kappa-sCD40(1-94)-Flag mutant fragment …; assay: as above; remark: listed apart in the source
Description: as §1

[12] = molecular target: T3, kappa-sCD40(1-94)-Flag mutant fragment …; assay: as above; remark: listed apart in the source
Description: as §1

[13] = molecular target: T10, kappa-sCD40(1-94)-Flag mutant fragment A (multiple mutations of residues 1-5) (human, UniProt P25942 26-114); assay: as above
T10 construct: The text says only multiple mutations of residues 1-5 (human to mouse differences); that mutant A carries exactly these is inferred; also called A (1-5); not shown: N-terminal human kappa light chain; C-terminal Flag tag
Description: as §1

B1: anti-CD40 human monoclonal antibody 3C3 (antibody, human IgG2, kappa, V domains shown)
VH: QVQLVESGGGVVQPGRSLRLSCAGSGFIFSRYGMYWVRQAPGKGLEWVAVIWYDGSYKYYADSVKGRFTISRDNSKNTLYLQMNSLRAEDTAVYYCARESPWYYFDYWGQGTLVTVSS
VL: DIQMTQSPSSLSASVGDRVTITCRASQGISNYLAWYQQKPGKVPKLLIYAASTLQSGVPSRFSGSGSGTDFTLTISSLQPEDVATYYCQKYKSAPFTFGPGTKVDIKR
notes: Human IgG2, C-terminal lysine removed; also called anti-CD40 mAb 3C3; CD40 antibody 3C3
- OD [1]: 2.2 OD 450-650
- OD [2]: 2.38 OD 450-650
- OD [3]: 2.02 OD 450-650
- EC50 (read off the curve) [4]: ~0.02 µg/mL
- Average OD [5]: 1.8 OD 450-650
- Average OD [6]: 0.024 OD 450-650
- Average OD [7]: 1.26 OD 450-650
- Average OD [8]: 0.024 OD 450-650
- koff [9]: 8.67e-06 s⁻¹
- Average OD [10]: 0.092 OD 450-650
- Average OD [11]: 2.03 OD 450-650
- Average OD [12]: 1.49 OD 450-650
- Average OD [13]: 0.189 OD 450-650
